Experimental data from patent publication CN118290581A (ZHEJIANG ZHENGXI BIOTECHNOLOGY CO LTD, dated 2024).

T1: 人CD138 (human, UniProt P18827 23-310)
T1 construct: whole, on cells; also called syndecan-1; CD138靶抗原
T1 sequence (looked up): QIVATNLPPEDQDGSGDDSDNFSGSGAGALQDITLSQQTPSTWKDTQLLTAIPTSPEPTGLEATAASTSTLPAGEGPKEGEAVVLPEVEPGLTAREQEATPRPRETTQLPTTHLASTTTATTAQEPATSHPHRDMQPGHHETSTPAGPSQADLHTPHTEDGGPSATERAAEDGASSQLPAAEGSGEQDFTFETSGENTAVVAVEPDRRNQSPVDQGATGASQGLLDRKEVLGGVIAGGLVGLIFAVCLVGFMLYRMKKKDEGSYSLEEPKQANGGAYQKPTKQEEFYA


Tests used:
人CD138 [1] = molecular target: T1, 人CD138; assay: flow cytometry titration of antibody dilutions (from 1 mg/mL) on cultured activated human cells, goat anti-mouse IgG-PE detection
人CD138 [2] = molecular target: T1, 人CD138; assay: flow cytometry, APC-labelled antibody on cultured activated cells

亲和力(kd) (人CD138 [1])	binding result (人CD138 [2])	Binder
25.2		鼠抗人CD138[ZXCloneHCD138-02]抗体 (antibody, mouse IgG1, kappa, V domains shown) VH: QVQLQQPGSVLVRPGASVKLSCKTSGYTFTSSWMHWAKQRPGQGLEWIGEIHPNGGNTYYNEKFKGKATLSVDTSSSTAYVDLSSLTSEDSAVYFCATPHYWGQGTTLTVSS VL: DVVMTQTPLSLPVSLGDQASISCRCRQSLVHSNGNTYLQWYLQKPGQSPILLIYRVSNRFSGVPDRFSGSGSGTDFTLKISRVEAEDLGVYFCSQSTHVPHTFGAGTKLELKR
	binds	自制鼠抗人CD138[ZXCloneHCD138-02]-APC (antibody, mouse IgG1, kappa, V domains shown, APC-labelled (site and chain not stated)) VH: QVQLQQPGSVLVRPGASVKLSCKTSGYTFTSSWMHWAKQRPGQGLEWIGEIHPNGGNTYYNEKFKGKATLSVDTSSSTAYVDLSSLTSEDSAVYFCATPHYWGQGTTLTVSS VL: DVVMTQTPLSLPVSLGDQASISCRCRQSLVHSNGNTYLQWYLQKPGQSPILLIYRVSNRFSGVPDRFSGSGSGTDFTLKISRVEAEDLGVYFCSQSTHVPHTFGAGTKLELKR
